Laboratory results: publication PMC3745516

Target: CTEN (UniProt Q8IZW8)
Assay: anti-Flag co-IP, anti-HA blot
Conditions: reference: HA-c-Cbl wild type; sites Y774

c-Cbl (from UniProt P22681) Y774F
binding against the reference: lost
